Values of other authors, collected in article PMC7365847.
Where two headings read alike, the source gives them in different places. Values belong to the substance of their own block, whether it stands above or below them.

Legend:
IL-1β (Homo sapiens) [1] = target: IL-1β (Homo sapiens) (UniProt P01584)
IL-1Ra (Homo sapiens) = IL-1Ra (Homo sapiens) (UniProt P18510)
IL-18BP (Homo sapiens) = IL-18BP (Homo sapiens) (UniProt O95998)
IL-1β (Homo sapiens) [2] = target: IL-1β (Homo sapiens) (UniProt P01584); remark: listed apart in the source

Sequence of IL-1β (Homo sapiens) (P01584 117-269): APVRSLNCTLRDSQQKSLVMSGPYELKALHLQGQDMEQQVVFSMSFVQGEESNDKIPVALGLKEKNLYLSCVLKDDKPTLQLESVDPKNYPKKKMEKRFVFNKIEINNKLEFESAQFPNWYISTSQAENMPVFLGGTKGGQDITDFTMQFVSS
Sequence of IL-1Ra (Homo sapiens) (P18510 26-177): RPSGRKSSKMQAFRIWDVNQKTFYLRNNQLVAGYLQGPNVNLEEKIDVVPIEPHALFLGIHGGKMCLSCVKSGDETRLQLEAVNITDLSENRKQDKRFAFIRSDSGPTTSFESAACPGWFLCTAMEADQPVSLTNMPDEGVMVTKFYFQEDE
Sequence of IL-18 (Q14116 37-193): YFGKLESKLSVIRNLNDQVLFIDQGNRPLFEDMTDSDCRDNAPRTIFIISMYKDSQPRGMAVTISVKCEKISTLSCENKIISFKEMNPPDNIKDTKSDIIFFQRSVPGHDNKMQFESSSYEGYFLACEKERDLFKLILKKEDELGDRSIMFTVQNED
Sequence of sIL-1R2/sIL-1R3 complex (P27930 14-398): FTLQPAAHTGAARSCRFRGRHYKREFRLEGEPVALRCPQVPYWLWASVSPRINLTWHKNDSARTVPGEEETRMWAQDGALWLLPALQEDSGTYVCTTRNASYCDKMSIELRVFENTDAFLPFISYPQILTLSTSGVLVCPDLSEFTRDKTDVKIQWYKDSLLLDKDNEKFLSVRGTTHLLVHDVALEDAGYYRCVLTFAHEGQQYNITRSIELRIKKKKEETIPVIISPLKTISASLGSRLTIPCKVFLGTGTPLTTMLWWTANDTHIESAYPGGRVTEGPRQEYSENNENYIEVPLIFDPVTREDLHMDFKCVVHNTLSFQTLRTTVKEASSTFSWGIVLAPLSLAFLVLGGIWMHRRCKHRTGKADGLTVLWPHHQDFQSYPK
Sequence of sIL-1R2/sIL-1R3 complex (Q9NPH3 21-570, further chain): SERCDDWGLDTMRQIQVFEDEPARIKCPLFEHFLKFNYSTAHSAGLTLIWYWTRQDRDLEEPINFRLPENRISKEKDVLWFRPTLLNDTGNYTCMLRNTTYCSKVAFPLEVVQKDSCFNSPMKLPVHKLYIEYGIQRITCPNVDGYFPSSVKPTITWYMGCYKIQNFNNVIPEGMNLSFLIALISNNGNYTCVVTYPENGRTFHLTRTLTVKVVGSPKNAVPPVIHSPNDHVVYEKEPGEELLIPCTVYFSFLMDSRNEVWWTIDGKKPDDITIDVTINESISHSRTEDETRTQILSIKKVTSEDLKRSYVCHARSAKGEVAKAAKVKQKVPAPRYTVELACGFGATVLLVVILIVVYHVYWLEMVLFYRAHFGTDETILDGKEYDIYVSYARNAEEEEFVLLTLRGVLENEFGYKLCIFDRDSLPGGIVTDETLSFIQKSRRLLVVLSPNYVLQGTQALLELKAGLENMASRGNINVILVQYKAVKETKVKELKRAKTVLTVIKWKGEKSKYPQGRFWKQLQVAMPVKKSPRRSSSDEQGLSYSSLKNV
Sequence of IL-18BP (Homo sapiens) (O95998 31-194): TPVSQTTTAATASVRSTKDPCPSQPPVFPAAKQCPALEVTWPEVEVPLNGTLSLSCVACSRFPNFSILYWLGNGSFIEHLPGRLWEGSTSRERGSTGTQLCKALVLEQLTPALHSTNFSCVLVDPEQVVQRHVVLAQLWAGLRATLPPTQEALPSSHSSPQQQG

Kd (IL-1β (Homo sapiens) [1]): 2.7 nM
Kd (IL-1Ra (Homo sapiens)): 25000 nM
Substance: sIL-1R2 (from UniProt P27930)

Substance: IL-18 (from UniProt Q14116)
Kd (IL-18BP (Homo sapiens)): 0.4 nM

Kd (IL-1β (Homo sapiens) [2]): 0.0056 nM
Substance: sIL-1R2/sIL-1R3 complex (from UniProt P27930)
